assay: yeast display, Sf9 membrane polyspecificity reagent, FACS + sequencing; frameworks hold sequencing errors
In short: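 Synthetic nanobody libraries on Saccharomyces cerevisiae BJ5465 were galactose-induced for 36–48 hours, stained 1 hour at 4 °C with 10% biotinylated, detergent-solubilized Sf9 membrane reagent and enriched on streptavidin microbeads. FACS then separated cells into low and high (top ~1%) gates by anti-HA (expression) and streptavidin (reagent binding) fluorescence. Genes were colony-PCR amplified, MiSeq 2 × 250 sequenced and CDR-length filtered. A clone's polyreactivity label is that of its gate of origin.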

Row | Sequence | polyreactivity (PSR sort gate)
1 | QVQLVESGGGLVQAGGSLRLSCAPYGLTFYGYTMGWYIQAPGKQRELVASISWSGGNKYYADSVKGRFTISRDKAKNSVYLQMNSLKPEDTAVYYCAAEHWTYDCVDYWGQGTQVTVSW | low polyreactivity
2 | QVQLVESGGGLVQAGGSLRLSCASGRIFKKNALGWYRQAPGKERELVAGITISGGRTYYADSVKGRFTISRDNAKNTVYLQMNSLKPEDTAVYYCNAGPDRRVSYYRLLDHWGQGTQVTVSS | low polyreactivity
3 | QVQLVESGGGLVQAGGSLRLSCASSGFIFFYYTKGWYRQAPGKERELVAAISTGGSTYYADSVKGRFTISRDNAKNTVYLQMNSLKPEDTAVYYCAALYWYEYTYLEYDYWGQGTQVTVSS | high polyreactivity
4 | QVQLVESGGGLVQAGGSLRLSCASSGFTFKDYAMGWYRQAPGKERELVAAISYSGGSTYYADSVKGRFTLSRDNAKNTVYLQMNSLKPEDTAVYYCARYFRRSAIYTRPRMDYWGQGTQVTVSS | high polyreactivity
5 | QVQLVESGGGLVQAGGSLRLSCASSGFTFSIYAMGWYRQAPGKERELVAAISSSGGITYYADAVKGRFTISRDNAKNTVYLQMKSLKPEDTAVYYWNKYFKTFYVSYLHDYWGQGTQVSVSS | high polyreactivity
6 | QVQLVESGGGLVQAGGSLRLSCASSGFTFWRNAMGWYRQAPGKERELVAAINWSGGSTYYADSVKGRFTISRDNAKNTVYLQMNSLKPEDTAVYYCAADLSSRGISQDDYWGQCTQVTVSS | high polyreactivity
7 | QVQLVESGGGLVQAGGSLRLSCASSGFTFWTYDMGWYRQAPGKERELVAAIDSGGSTYYADSVKGRFTISRDNAKNTVYLQMNSLKPEDTAVYYCNAGPSVTSGYDYDYWGQGTQVTVSS | low polyreactivity
8 | QVQLVESGGGLVQAGGSLRLSCASSGIILYYYVMGWYRQAPGKERELVAAINRSGTSTYYADSVKGRFTISRDNAKNTVYLQMNSLKPEDTAVYYCAAERYWSGGVFDYDYWGQGTQVTVSS | high polyreactivity
9 | QVQLVESGGGLVQAGGSLRLSCASSGITFDYYAMGWYRQAPGKERELVASISSDSSTYYADSVKGRFTISRDNAKNTVYLQMNSLKPEDTAVYYCNAGDTTFPFYYWGQGTQVTVSS | low polyreactivity
10 | QVQLVESGGGLVQAGGSLRLSCASSGITFTFYVMGWYRQAPGKERELVAAISSGGGRTYYADSVKGRFTISRDNAKNTVYLQMNSLKPEDTAVYYCNAALYHDSEYNYWGQGTQVSVSS | high polyreactivity
11 | QVQLVESGGGLVQAGGSLRLSCASSGKIFLSYAMGWYRQAPGKERELVAGISASGGRTYYADSVKGRFTISRDNAKNTVYLQMNSLKPEDTAVYYCNADTTPQGNVRDGYWGQGTQVTVSS | high polyreactivity
12 | QVQLVESGGGLVQAGGSLRLSCASSGLILFYNAMGWYRQAPGKERELVATIRRGGTTYYADSVKGRFTISRDNAKNTVYLQMNSLKPEDTAVYYCAKESLYQYDYWGQGTQVTVSS | low polyreactivity
13 | QVQLVESGGGLVQAGGSLRLSCASSGLTFELYAMGWYRQAPGKERELVAAITWSGGRTYYADSVKGRFTISRDNAKNTVYLQMNSLKPEDTAVYYCAADVYPGYVGSQEYDYWGQGTQVTVSS | low polyreactivity
14 | QVQLVESGGGLVQAGGSLRLSCASSGLTLQYYAMGWYRQAPGKERELVAAITYSGGSTYYADSVKGRFTISRDNAKNTVYLQRNSLKPEDTGVYYCAKVPVRSGGTLYDYWGQGTQVTVSS | low polyreactivity
15 | QVQLVESGGGLVQAGGSLRLSCASSGRIFGSYAMGWYRQAPGKERELVAGISKSGTSTYYADSVKGRFTISRDNAKNTVYLLMNSLKPEDTADYYCAKRFDSTKAKYYYWGQGTQGTVSS | high polyreactivity
16 | QVQLVESGGGLVQAGGSLRLSCASSGRIFGYYVRGWYRQAPGTERELVATISRVGTTNYADSVKGRFTISRDNAKNSVYLPMNSLKPEDTAVYYCNADYTGHRGGNDYWGQGTQVTVSS | low polyreactivity
17 | QVQLVESGGGLVQAGGSLRLSCASSGRIFPWNTMGWYRQAPGKERELVAGINNGDRTYYADSVKGRFTISRDNAKNRVYLQMNSLKPDETAVYYCARDDNPIYSGVTYDSWGQGTQVSVSS | low polyreactivity
18 | QVQLVESGGGLVQAGGSLRLSCASSGRIFSFYAMGWYRQAPGKERELVAAISWNSGRTYYADSVKGRFTISRDNAKNTVYLQMNSLKPEDTAVYYCAAPFSAYYGDDYWGQGTQVTVSS | low polyreactivity
19 | QVQLVESGGGLVQAGGSLRLSCASSGRIFYYYAMGWYRQAPGKEREFVARNRSSGGSTYADSVKGRFTISRDNAKNTVYLQMNSLKPEDTAVYYCARDGYTAVEYDYWGQGTQVTVSS | low polyreactivity
20 | QVQLVESGGGLVQAGGSLRLSCASSGRNFQKYAMGWYRQAPGKERELVAAISSGDSTYADSVKGRFTISRDNAKNTVYFQMNSLKPEDTAVYYCAVDLYDPWWYSYIGEYEYWGQGTQVTVSS | low polyreactivity
21 | QVQLVESGGGLVQAGGSLRLSCASSGRTFFKNALGWYRQSPGKERELVARISWNGGDSTYYADSVKGRFTISRDNAKITVFFQMISLKPEDTAVYYCAADTSYRQGGSRHGYVYWGQGTQVTVSS | low polyreactivity
22 | QVQLVESGGGLVQAGGSLRLSCASSGRTFFPYAKGWYRQAPGKEREFVAAITKTDDSTYYADSVKGRFTISRDNAKNTVYLQMNSLKPEDTAVYYCNAGDTQIRFYYWGQGTQVTVSS | low polyreactivity

Row | Sequence | polyreactivity (PSR sort gate)
23 | QVQLVESGGGLVQAGGSLRLSCASSGRTFGTYAMGSYRQAPGKDSELVAAITSGTRTYYADCVKGRFTISRDNAKNTVYLQMNSQKPEDTSVYYCAAGLVYRWSSTPRRLYYYWGQGTQVTVSS | high polyreactivity
24 | QVQLVESGGGLVQAGGSLRLSCASSGRTFLRYAMGWYRQAPGKERELVAAISSRGGTTHYADSVKGRFTISRDNAKNTVYLPMNSLKPEDTAVYYCAAKSFLPYLKFGYWGQGTQVTVSS | high polyreactivity
25 | QVQLVESGGGLVQAGGSLRLSCASSGRTFVNNAMGWSRQAPGKERELVAAISQSGSRTYYADSVKGRFTISRDNAKNTVYLQMNSLKPEDTAVYYCAARGARYSTSDYWGQGTQVTVSS | high polyreactivity
26 | QVQLVESGGGLVQAGGSLRLSCASSGRTFYSYAMGWYRQAPGKERELVAGITWSGTSTYYADSVKGRFTISRDNWKNTVYLQMYSLKPEDTAVYYCAAATLYSGYDYWGQGTQVSVSS | low polyreactivity
27 | QVQLVESGGGLVQAGGSLRLSCASSGRTFYSYVMGWYRQAHGKERELVAGISKRGGRTYYADSVKGRFTISRDNAKNTVYLEMYSLKPEDTAVYFCADDFPHTYWTFDFDYWGQGTQVTVSS | high polyreactivity
28 | QVQLVESGGGLVQAGGSLRLSCASSGRTIYGSTKGWYRQAPGKESELGAAIRRSGGSTYYADSVKGRFTISRDNAKNTVYFQMNRLNPEDTAVYYCAASWRDIYRHYNVYPYDYWGQGTQVTVSS | low polyreactivity
29 | QVQLVESGGGLVQAGGSLRLSCASSGSIFARYALGWYIQAPGKQRELVADINSTVSTNYADSVKGRFTISRDNAKNPVYLQMNSLKPEVTAVSYCAVDIVRGGRDSWGQGTQVTVSS | low polyreactivity
30 | QVQLVESGGGLVQAGGSLRLSCASSGSIFEANDMGWYRQAPGKEREFVADIDANSGSTYYADSVKGRFTISRDNAKNTVNLQMNSLKPEDTADYYCNAQVYLHTAYDYWGQVTQVTVSS | low polyreactivity
31 | QVQLVESGGGLVQAGGSLRLSCASSGSILGRYAMGWYRQAPGKERELVAAISGSGGSTYYADSVKGRFTISRDNAKNTVYLQMNSLKPEDTAVYYCAAERFIYYQIFEYWGQGTQVTVSS | high polyreactivity
32 | QVQLVESGGGLVQAGGSLRLSCASSGSTFDANAMGWYRQAPGKERELVAAITSNGGSTYYADSVKGRFTISRDNAKNTVYLQMNSLKPEDTAVYYCATEQHTVQDYDYWGQGTQVTVSS | low polyreactivity
33 | QVQLVESGGGLVQAGGSLRLSCASSGSTFEANAMGWYRQAPGKERELVAVITWTGGSTYYADSVKGRFTISRDNAKNTLYLQMNSLKPEDTAVYYCDADGVVPGRFFWPAHEYEYWGQGTQGTVSS | low polyreactivity
34 | QVQLVESGGGLVQAGGSLRLSCASSGSTFNRYAMVWYRQAPGKERELVAAISGSGSSTYYADSVKGRFTISRDNAKNTVYLQMNSLKPEDNAVYYCAAVRYHKFREYNSWGQGTQVTVSS | high polyreactivity
35 | QVQLVESGGGLVQAGGSLRLSCASSGSTFNSYAMGWYRQAPGKERELVAAISWSGGSTYYADSVKGRFTISRDNAKNTVYLQMNSLKPEDTAVYYCNADYWWEYAYVVDYWGQGTQVTVSS | low polyreactivity
36 | QVQLVESGGGLVQAGGSLRLSCASSGSTFSYYDMGWYRQAPGKERELVAAISWNGGTTYYADSVKGRFTISRDNAKNTVYLQMNSLKPEDTAVYYCAATWDFYWAPYDSWGQGTQVSVSS | low polyreactivity
37 | QVQLVESGGGLVQAGGSLRLSCASSGSTFTPNAMGWYRQAPGKERELVASNYTTGGNTYYADSVKGRFTNSRDNAKNTVYLQMNSLKPEDTAVYYCNARQALVWKWSWYSPGYDYWGQGTQVTVSS | low polyreactivity
38 | QVQLVESGGGLVQAGGSLRLSCASSGYILRSNAMVWYRQAPGKEREFVAAITYSGGTTYYADSVKGRFTISRDNAKNTVYLQMNSLKPEDTAVYYCNADYGYYKLDYWGQGTQVTVSS | low polyreactivity
39 | QVQLVESGGGLVQAGGSLRLSCASSGYIYIVNAMGWYRQAPGKERELDAAINSSGGNTYYADSVKGRFTISRDNAKNTVYLQMNSLKPEDTGVYYCAADQAKDISFEYDYWGQGTQVTVSS | low polyreactivity
40 | QVQLVESGGGLVQAGGSLRLSCASSGYTFVYYAMGWYRQAPGKERELVAAINVSDGNTFYADSVKGRFTISRDNAKNTVYLQMNSLIPEDTAVYYCAADYYPYPPTSEYGYWGQGTQVTVSS | low polyreactivity
41 | QVQLVESGGGLVQAGGSLRLSCASSVRIFEVYAMGSYRQAPGKERELVADITYSGGSTYYADSVKGRFTISRDNAMNTVYLQMNSLKPEDTAVYYCAADVTFVHRYEYYRSYDYWGQGTQVTVSS | low polyreactivity
42 | QVQLVESGGGLVQAGGSLRLSCATSGFTLLKNAMGWYRQAPGKERELVAAIRQRGTTTYYADSVKGRFTISRDNAKNTVYLQMNSLKPEDTAVYSCNAGRRTGRYGYWGQGTQVTVSS | high polyreactivity
43 | QVQLVESGGGLVQAGGSLRLSCAVSGGLFSFYAMGWYRQAPGKERELVAAISSGGTTYYADSVKGRFTISRDNAKNTVYLQMNSLKPEDTAVYYCALLVGHNYWGQGTQVTVSS | low polyreactivity
